Assay results reported in US20250250357A1 (NANJING ZAIMING PHARMACEUTICAL, published 2025).

Experiments:
[1] = biological target: T1, human MSLN protein endogenously expressed on OVCAR3 tumor cells (human, UniProt Q13421 296-598); experiment: FACS on OVCAR3 cells;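 note: flow cytometry of chimeric antibody binding to OVCAR3 cells, 2 h on ice, read as cellular mean fluorescence intensity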
T1 construct: whole, on cells; endogenous expression on a tumor cell line; also called human mesothelin

[2] = biological target: T2, human MSLN-FL-his protein (human, UniProt Q13421 296-580); experiment: competitive ELISA; row Tab142; note: test concentration or dose not given here
T2 construct: made in HEK293E cells, purified on nickel column; also called hMSLN-FL-his; human MSLN full-length protein; not shown: His tag
T2 sequence (Q13421 other isoform, or with tags, fused parts or gaps): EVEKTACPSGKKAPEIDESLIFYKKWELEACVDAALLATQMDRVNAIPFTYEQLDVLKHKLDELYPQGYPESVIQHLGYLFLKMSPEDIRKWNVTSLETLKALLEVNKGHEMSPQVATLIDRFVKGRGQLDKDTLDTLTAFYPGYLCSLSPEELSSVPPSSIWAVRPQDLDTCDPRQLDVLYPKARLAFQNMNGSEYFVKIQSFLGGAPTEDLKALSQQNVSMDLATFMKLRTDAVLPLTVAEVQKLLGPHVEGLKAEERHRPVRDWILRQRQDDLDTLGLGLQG

[3] = biological target: T2, human MSLN-FL-his protein; experiment: competitive ELISA; row F8-13.8; note: test concentration or dose not given here
[4] = biological target: T2, human MSLN-FL-his protein; experiment: competitive ELISA; row Tab021; note: test concentration or dose not given here
[5] = biological target: T2, human MSLN-FL-his protein; experiment: competitive ELISA; row F8-4.5; note: test concentration or dose not given here
[6] = biological target: T2, human MSLN-FL-his protein; experiment: competitive ELISA; row F8-5.15; note: test concentration or dose not given here
[7] = biological target: T2, human MSLN-FL-his protein; experiment: competitive ELISA; row F8-27.1; note: test concentration or dose not given here
[8] = biological target: T2, human MSLN-FL-his protein; experiment: competitive ELISA; row F8-18.9; note: test concentration or dose not given here
[9] = biological target: T2, human MSLN-FL-his protein; experiment: competitive ELISA; row F8-19.21; note: test concentration or dose not given here
[10] = biological target: T2, human MSLN-FL-his protein; experiment: SPR (Biacore), antibody captured on Protein A chip;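 note: flow cell at 25 °C, antigen injected for 240 s at five concentrations from 200 nM downward, dissociation followed up to 600 s, double-referenced, fitted with Langmuir 1:1 model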
[11] = biological target: T3, human MSLN-R3 protein expressed on HEK293T cells (HEK293T-hMSLN-R3) (human, UniProt Q13421 487-606); experiment: FACS on HEK293T-hMSLN-R3 cells;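 note: chimeric antibodies incubated with cells on ice for 2 h, binding read by flow cytometry as mean fluorescence intensity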
T3 construct: C-terminal limit uncertain
T3 sequence (Q13421 495-614): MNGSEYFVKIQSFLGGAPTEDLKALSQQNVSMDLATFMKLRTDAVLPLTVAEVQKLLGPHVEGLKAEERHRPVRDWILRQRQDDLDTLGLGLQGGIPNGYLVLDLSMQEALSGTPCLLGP

[12] = biological target: T2, human MSLN-FL-his protein; experiment: competitive ELISA; row F8-7.5; note: test concentration or dose not given here
[13] = biological target: T2, human MSLN-FL-his protein; experiment: competitive ELISA; row F8-31.22; note: test concentration or dose not given here
[14] = biological target: T2, human MSLN-FL-his protein; experiment: competitive ELISA; row F8-12.13; note: test concentration or dose not given here
[15] = biological target: T2, human MSLN-FL-his protein; experiment: competitive ELISA; row F8-15.19; note: test concentration or dose not given here

T1 sequence (Q13421 other isoform, or with tags, fused parts or gaps): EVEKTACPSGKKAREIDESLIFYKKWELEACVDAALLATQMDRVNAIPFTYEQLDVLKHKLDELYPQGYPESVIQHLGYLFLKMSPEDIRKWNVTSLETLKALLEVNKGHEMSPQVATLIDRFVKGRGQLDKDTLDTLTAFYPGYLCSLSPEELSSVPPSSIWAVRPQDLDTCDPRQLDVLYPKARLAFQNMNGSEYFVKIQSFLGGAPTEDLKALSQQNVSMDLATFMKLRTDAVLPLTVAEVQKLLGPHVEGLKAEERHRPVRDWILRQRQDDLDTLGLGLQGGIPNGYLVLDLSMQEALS

Binder | EC50 [1] | Maximum mean fluorescence intensity [1] | competition rate [2] | competition rate [3] | competition rate [4] | competition rate [5] | competition rate [6] | competition rate [7] | competition rate [8] | competition rate [9] | Kd [10] | koff [10] | kon [10] | Maximum mean fluorescence intensity [11] | binding result [11] | competition rate [12] | competition rate [13] | competition rate [14] | competition rate [15]
S009-F8-31.22 (antibody, human IgG1, kappa, V domains shown, human-murine chimeric antibody, human IgG1/kappa constant regions) VH: EVQLVESGGDLVKPGGSLKLSCAASGFTFSTYGMSWVRQTPDKRLEWVATISSGGSYTYYPDSLKGRFTISRDNAKNTLYLQMSSLKSEDTAMYYCARHEGYYYGKDYWGQGTTLTVSS VL: DIVLTQSPATLSVTPGDSVSLSCRASHSISNNLHWYQQKSHESPRLLIKYASQSISGIPSKFSGSGSGTDFTLSINSVETEDFGMYFCQQTNSWPLTFGAGTKLELKR | 0.64 nM | 7750 | 12.9% | 5.21% | 10.3% | -2.53% | 86.5% | 11.7% | 0.11% | 16.3% | 87.6 nM | 0.0276 s⁻¹ | 315000 M⁻¹ s⁻¹ | 189 | no binding | 18.1% | 69.3% | 64.8% | 83.2%
S009-F8-5.15 (antibody, human IgG1, kappa, V domains shown, human-murine chimeric antibody, human IgG1/kappa constant regions) VH: QVQLQQPGTELVKPGASVKLSCKASGYTFTSYWMHWVKQRPGQGLEWIGHSNPSNGGTNYNEKFKSKATLTVDKSSSTAYMQLSSLTSEDSAVYYCARWVRGSNYEYFDVWGTGTTVTVSS VL: DIVMTQSQKFMSTTVGDRVSIICKASQNVGSAVAWCQQKPGQSPKLLIYSASNRYTGVPDRFTGSGSGTDFTLTISNMQSEDLADYFCQQYSSYPLTFAGGTKLEIKR | 4.08 nM | 4920 | 15.3% | 7.5% | 1.09% | 29.6% | 96.8% | 39.7% | 8.9% | 25.5% | 27.4 nM | 0.017 s⁻¹ | 620000 M⁻¹ s⁻¹ | 98 | no binding | -148% | 79% | 79.2% | 82.2%
S009-F8-12.13 (antibody, human IgG1, kappa, V domains shown, human-murine chimeric antibody, human IgG1/kappa constant regions) VH: QVQLQQPGAELVKPGASVKLSCKASGYTFTSYWMHWVKQRPGQGLEWIGMIHPNSGSTNYNEKFKSKATLTVDKSSSTAYMQLSSLTSEDSAVYYCARRTPIITLVGHWYFDVWGTGTTVTVSS VL: DIVMTQSHKFMSTSVGDRVSITCKASQDVGTAVAWYQQKPGQSPKLLIYWASTRHTGVPDRFTGSGSGTDFTLTISNVQSEDLADYFCQQYSSYPLTFGAGTKLELKR | 2.24 nM | 9830 | 65.5% | 51.1% | 6.56% | 88.2% | 99.3% | 93.5% | 10.1% | 75.9% | 5.5 nM | 0.00296 s⁻¹ | 539000 M⁻¹ s⁻¹ | 135 | no binding | -135% | 92.2% | 93.7% | 98.5%
S009-F8-15.19 (antibody, human IgG1, kappa, V domains shown, human-murine chimeric antibody, human IgG1/kappa constant regions) VH: EFQLQQSGPELVKPGASVKISCKASGYSFTDYNMNWVKQSNGKSLEWIGIINPYYGTTSNNQNFKGKATLTVDQSSSTAYMQLNSLTSDDSAVYYCARWLRRDAMDYWGQGTSVTVSS VL: DIVMTPSHKFMSTSVGDRVSIACKASQDVGSSVAWYQQKPGQSPKLLIYWTSTRHTGVPDRFTGSGSGTDFTLTISNVQSEDLADYFCQQYSSYPWTFGGGTKLEIKR | 3.16 nM | 8140 | 39.3% | 24% | -2.08% | 43.8% | 99.3% | 75.5% | 8.37% | 46.9% | 5.37 nM | 0.00724 s⁻¹ | 1.35e+06 M⁻¹ s⁻¹ | 165 | no binding | -117% | 90.7% | 89.3% | 94.1%
S009-F8-13.8 (antibody, human IgG1, kappa, V domains shown, human-murine chimeric antibody, human IgG1/kappa constant regions) VH: EFQLQQSGPELVKPGASVKISCKASGYSFTDYNMNWVKQTNGKSLEWIGIINPNYGTSSYNQKFKGKATLTVDQSSSTAYMQLNSLTSEDSAVYYCARVGRDNSGFDYWGQGTTLTVSS VL: QIVLTQSPAIMSASPGEKVTMTCSASSSVSYMYWYQQKPGSSPRLLIYDTSNLASGVPVRFSGSGSGTSYSLTISRMEAEDAATYYCQQWSSYPPTFGSGTELEIKR | 1.42 nM | 13000 | 93.8% | 86.2% | 14.2% | 93% | 99.9% | 98.4% | 11.3% | 96.5% | 0.95 nM | 0.00125 s⁻¹ | 1.31e+06 M⁻¹ s⁻¹ | 95 | no binding | -135% | 99% | 97.9% | 99.8%
